Measurements published in US20200317768A1 (published 2020).
Residue numbers refer to the chain shown, from its start.

Key:
Assay in all cases: SPR (BIACORE T200), 37 C, pH5.8, avidity condition (capture 185 RU), 1:1 fit; pH 5.8
Human latent myostatin = biological target: T1, Human latent myostatin (human, UniProt O14793 25-266; O14793 267-375)
T1 construct: Biotinylated in the ELISAs; also called human myostatin latent form
T1 sequence 1: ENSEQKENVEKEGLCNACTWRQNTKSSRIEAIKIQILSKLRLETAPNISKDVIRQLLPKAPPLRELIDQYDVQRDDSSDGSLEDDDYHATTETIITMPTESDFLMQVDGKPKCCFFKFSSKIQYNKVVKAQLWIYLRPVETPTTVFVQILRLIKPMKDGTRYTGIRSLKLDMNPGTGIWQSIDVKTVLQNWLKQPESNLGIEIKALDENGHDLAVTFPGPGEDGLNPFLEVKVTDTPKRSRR
T1 sequence 2: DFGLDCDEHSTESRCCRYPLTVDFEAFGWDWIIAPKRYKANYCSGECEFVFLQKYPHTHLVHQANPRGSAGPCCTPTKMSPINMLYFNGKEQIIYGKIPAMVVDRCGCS
Experimental: (§1) The kinetic parameters of anti-latent myostatin antibodies against human, cynomolgus monkey (cyno), and mouse latent myostatin were assessed at 37° C. at pH7.4 using a BIACORE® T200 instrument (GE Healthcare). ProA/G (Pierce) was immobilized onto all flow cells of a CM4 chip using amine coupling kit (GE Healthcare). Anti-latent myostatin antibody and analytes were prepared in ACES pH7.4 (20 mM ACES, 150 mM NaCl, 1.2 mM CaCl₂), 0.05% TWEEN® 20, 0.005% NaN₃). […] Then human, cyno, or mouse latent myostatin was injected at 3.125 to 50 nM prepared by two-fold serial dilution, followed by dissociation. The sensor surface was regenerated with 25 mM NaOH. Kinetic parameters were determined by processing and fitting the data to a 1:1 binding model using BIACORE® T200 Evaluation software, version 2.0 (GE Healthcare).
(§2) All experimental settings were the same as in Example 7, except that measurements were also performed in ACES pH5.8 buffer in addition to ACES pH7.4 condition. Some antibodies were only measured against human latent myostatin. Antibody capture level was aimed at 185 RU and 18.5 RU, for avidity and affinity assay, respectively. Kinetic parameters were determined using 1:1 Binding fitting using BIACORE® T200 Evaluation software, version 2.0 (GE Healthcare).

[1] = biological target: T2, Cynomolgus monkey latent myostatin (cynomolgus monkey, UniProt Q95J86 25-266; Q95J86 267-375)
T2 construct: signal 1-24; also called Cyno latent myostatin
T2 sequence 1: T1 sequence 1 with V52A
T2 sequence 2: T1 sequence 2
Experimental: as §1, §2

Mouse latent myostatin = biological target: T3, Mouse latent myostatin (mouse, UniProt O08689 26-267; O08689 268-376)
T3 construct: signal 1-24
T3 sequence 1: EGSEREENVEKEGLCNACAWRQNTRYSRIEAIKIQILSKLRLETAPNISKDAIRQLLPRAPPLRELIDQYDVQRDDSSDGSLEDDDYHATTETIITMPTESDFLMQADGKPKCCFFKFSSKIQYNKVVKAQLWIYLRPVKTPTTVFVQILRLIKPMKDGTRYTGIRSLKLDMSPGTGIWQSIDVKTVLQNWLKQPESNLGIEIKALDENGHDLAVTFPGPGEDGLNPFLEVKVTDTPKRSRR
T3 sequence 2: T1 sequence 2
Experimental: as §1, §2

Kd (Human latent myostatin): 79.7 pM
koff (Human latent myostatin): 0.000128 s⁻¹
kon (Human latent myostatin): 1.6e+06 M⁻¹ s⁻¹
Kd [1]: 8.83 pM
koff [1]: 1.58e-05 s⁻¹
kon [1]: 1.79e+06 M⁻¹ s⁻¹
Kd (Mouse latent myostatin): 8.7 pM
koff (Mouse latent myostatin): 2.02e-05 s⁻¹
kon (Mouse latent myostatin): 2.32e+06 M⁻¹ s⁻¹
B1: MS_M103205H000-SG1/M103202LO00-SK1 (antibody, human IgG1, kappa, V domains shown)
VH: QVTLKESGPVLVKPTETLTLTCTVSGIDLSSYDISWVRQAPGKGLEWVGIISYAGSTYYASWAKGRLTISKDTSKNQVVLTMTNMDPVDTATYYCARGVPAYSTGGDLWGQGTLVTVSS
VL: DIVMTQSPATLSLSPGERATLSCQSSQSVYDNNWLSWFQQKPGQPPKLLIYWASTLASGVPSRFSGSGSGTDFTLTISSLQPEDAATYYCAGGYGGGLYAFGQGTKVEIKR
notes: Humanized MST1032, not pH-dependent; also called MS1032LO00-SG1; Ab001
